Measurements: paper PMC7705670, “Structural and functional characterization of M. tuberculosis sedoheptulose- 7-phosphate isomerase, a critical enzyme involved in lipopolysaccharide biosynthetic pathway” (Scientific Reports, 2020)

B1: M. tuberculosis sedoheptulose-7-phosphate isomerase (MtbGmhA), wild type (enzyme)
chain: MCTARTAEEIFVETIAVKTRILNDRVLLEAARAIGDRLIAGYRAGARVFMCGNGGSAADAQHFAAELTGHLIFDRPPLGAEALHANSSHLTAVANDYDYDTVFARALEGSARPGDTLFAISTSGNSMSVLRAAKTARELGVTVVAMTGESGGQLAEFADFLINVPSRDTGRIQESHIVFIHAISEHVEHALFAPRQ
notes: also called Rv0113; not shown: His6, N-terminal, kept
B2: M. tuberculosis GmhB enzyme (MtbGmhB) (enzyme)
chain: MVAERAGHQWCLFLDRDGVINRQVVGDYVRNWRQFEWLPGAARALKKLRAWAPYIVVVTNQQGVGAGLMSAVDVMVIHRHLQMQLASDGVLIDGFQVCPHHRSQRCGCRKPRPGLVLDWLGRHPDSEPLLSIVVGDSLSDLELAHNVAAAAGACASVQIGGASSGGVADASFDSLWEFAVAVGHARGERG

Legend:
[1] = biological target: the molecule itself; experiment: SEC
[2] = biological target: T1, M. tuberculosis HddA enzyme (MtbHddA) (M. tuberculosis, UniProt O53637 1-386); experiment: SPR; MtbGmhA immobilised (legend of Figure 4) on a gold surface activated by EDC-NHS; 25 °C; steady-state fit, Langmuir 1:1 model; details: both partners purified
T1 sequence: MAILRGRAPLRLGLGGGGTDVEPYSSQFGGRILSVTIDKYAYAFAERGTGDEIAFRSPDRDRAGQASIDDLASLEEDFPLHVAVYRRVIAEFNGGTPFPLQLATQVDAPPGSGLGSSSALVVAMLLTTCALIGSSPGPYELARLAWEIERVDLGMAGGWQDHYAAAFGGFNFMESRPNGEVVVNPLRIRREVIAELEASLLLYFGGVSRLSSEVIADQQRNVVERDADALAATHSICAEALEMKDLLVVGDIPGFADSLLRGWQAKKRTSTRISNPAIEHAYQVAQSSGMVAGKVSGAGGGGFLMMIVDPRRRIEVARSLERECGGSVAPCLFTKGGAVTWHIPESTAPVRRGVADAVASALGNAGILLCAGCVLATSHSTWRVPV

[3] = biological target: T1, M. tuberculosis HddA enzyme (MtbHddA); experiment: SPR; details: both partners purified
[4] = biological target: B1; experiment: SPR; MtbGmhA immobilised (legend of Figure 4) on a gold surface activated by EDC-NHS; 25 °C; steady-state fit, Langmuir 1:1 model; details: both partners purified

B1
stoichiometry N [1]: 4
Kd [2]: 8.45 ± 0.45 µM

B2
Kd [3]: 20 ± 0.95 µM
Kd [4]: 4.9 ± 0.11 µM
